Test results published in US20130189747A1, “Compositions Comprising A Polypeptide Having Cellulolytic Enhancing Activity And A Sulfur-Containing Compound And Uses Thereof” (priority 2010, published 2013).
“Also recorded” adds a separate entry of the source.

Experiments:
Type in all cases: biochemical
[1] = tested on: Trichoderma reesei cellulase composition; assay: Hydrolysis of milled washed pretreated corn stover (PCS) by the Trichoderma reesei cellulase composition with/without GH61 polypeptide and sulfur-containing compound; settings: for Enhancement of hydrolysis of milled washed PCS by the GH61 polypeptide: no sulfur-containing compound; for GH61 effect (Equation 4): in the absence of L-cysteine (Example 4); for Percent conversion of milled washed PCS: no L-cysteine
Protocol: (§1) The effect of various sulfur-containing compounds on the cellulolytic enhancing activity of GH61 polypeptides was evaluated according to the procedures described below.

[2] = tested on: Trichoderma reesei cellulase composition; assay: Hydrolysis of AVICEL® (microcrystalline cellulose) by the Trichoderma reesei cellulase composition with/without GH61 polypeptide and sulfur-containing compound
Protocol: as §1

[3] = tested on: Trichoderma reesei cellulase composition; assay: Hydrolysis of milled unwashed pretreated corn stover (PCS) by the Trichoderma reesei cellulase composition with/without GH61 polypeptide and sulfur-containing compound; settings: for Enhancement of hydrolysis of milled unwashed PCS by the GH61 polypeptide: no sulfur-containing compound
Protocol: as §1

B1: T. aurantiacus GH61A polypeptide: GH61A polypeptide having cellulolytic enhancing activity (SEQ ID NO: 14), recombinantly prepared in Aspergillus oryzae JaL250 (protein, listed as Thermoascus aurantiacus)
chain: MSFSKIIATAGVLASASLVAGHGFVQNIVIDGKYYGGYLVNQYPYMSNPPEVIAWSTTATDLGFVDGTGYQTPDIICHRGAKPGALTAPVSPGGTVELQWTPWPDSHHGPVINYLAPCNGDCSTVDKTQLEFFKIAESGLINDDNPPGIWASDNLIAANNSWTVTIPTTIAPGNYVLRHEIIALHSAQNQDGAQNYPQCINLQVTGGGSDNPAGTLGTALYHDTDPGILINIYQKLSSYIIPGPPLYTG
With B1 as the molecule, how does the “Enhancement of hydrolysis of milled washed PCS by the GH61 polypeptide” value ([1]; 1 day) read?
The value was 14%.

What about the “Enhancement of hydrolysis of milled washed PCS by the GH61 polypeptide” value ([1]; 3 days) of the same molecule?
The value was 31%.

And the “Enhancement of hydrolysis of milled washed PCS by the GH61 polypeptide” value ([1]; 7 days)?
The value was 31%.

What about the “GH61 effect (Equation 4)” value ([1]; PCS, 3 days) of the same molecule?
The value was 1.31±0.030.

What about the “Percent conversion of milled washed PCS” value ([1]; day 1, GH61 polypeptide at 10% (w/w) of the cellulase composition (2 mg per g cellulose)) of the same molecule?
Its value is 27±0.8%.

And the “Percent conversion of milled washed PCS” value ([1]; day 1, GH61 polypeptide at 25% (w/w) of the cellulase composition (2 mg per g cellulose))?
The value was 27±0.8%.

What about the “Percent conversion of milled washed PCS” value ([1]; day 1, GH61 polypeptide at 50% (w/w) of the cellulase composition (2 mg per g cellulose)) of the same molecule?
The value was 27±0.8%.

What about the “Percent conversion of milled washed PCS” value ([1]; day 3, GH61 polypeptide at 10% (w/w) of the cellulase composition (2 mg per g cellulose)) of the same molecule?
Its value is 55±3%.

And the “Percent conversion of milled washed PCS” value ([1]; day 3, GH61 polypeptide at 25% (w/w) of the cellulase composition (2 mg per g cellulose))?
Its value is 57±0.5%.

What about the “Percent conversion of milled washed PCS” value ([1]; day 3, GH61 polypeptide at 50% (w/w) of the cellulase composition (2 mg per g cellulose)) of the same molecule?
Its value is 59±2%.

And the “GH61 effect (Equation 4)” value ([1]; milled washed PCS, 7 days)?
The value was “approximately 1.31±0.03”.

What about the “GH61 effect (Equation 4)” value ([2]; AVICEL®, day 1, in the absence of L-cysteine, all GH61 concentrations tested (5.6, 14, 28 mg per liter), FIG. 3B) of the same molecule?
Its value is 1.

What about the “GH61 polypeptide concentration at which the GH61 effect was maximal” value ([2]; AVICEL®, day 1, intermediate L-cysteine concentrations, FIG. 3B) of the same molecule?
The value was “approximately 15 mg per liter”.

And the “Effect of the GH61 polypeptide on hydrolysis of AVICEL® (microcrystalline cellulose) by the T. reesei cellulase composition” value ([2]; in the absence of a sulfur-containing compound)?
The value was “did not enhance; also recorded: no detectable effect”.

And the “Enhancement of hydrolysis of milled unwashed PCS by the GH61 polypeptide” value ([3]; 1 day)?
The value was 19%.

What about the “Enhancement of hydrolysis of milled unwashed PCS by the GH61 polypeptide” value ([3]; 3 days) of the same molecule?
The value was 21%.

What about the “Enhancement of hydrolysis of milled unwashed PCS by the GH61 polypeptide” value ([3]; 7 days) of the same molecule?
Its value is 19%.

And the “GH61 effect (Equation 4)” value ([3]; milled unwashed PCS, 7 days, in the absence of L-cysteine (Example 4))?
The value was 1.19±0.08.
